Results on one substance are retold here after article PMC5148612.

Assay [1] deals with Atg5 K57E,N84E-TAP (S. cerevisiae) (UniProt Q12380). The assay is described as follows: co-IP; lysates of atg16∆ atg19∆ S. cerevisiae with integrated Atg5-TAP or Atg5 K57E,N84E-TAP, plasmid 6xmyc-Atg19 and plasmid Atg16 wild type; IgG beads (Figure 5F).
The target is the same in assay [2]. As to the kind of experiment: co-IP; as a14 but with plasmid Atg16 E102A instead of Atg16 wild type (Figure 5F).

Sequence of Atg5 K57E,N84E-TAP (S. cerevisiae) (Q12380 whole entry K57E/N84E): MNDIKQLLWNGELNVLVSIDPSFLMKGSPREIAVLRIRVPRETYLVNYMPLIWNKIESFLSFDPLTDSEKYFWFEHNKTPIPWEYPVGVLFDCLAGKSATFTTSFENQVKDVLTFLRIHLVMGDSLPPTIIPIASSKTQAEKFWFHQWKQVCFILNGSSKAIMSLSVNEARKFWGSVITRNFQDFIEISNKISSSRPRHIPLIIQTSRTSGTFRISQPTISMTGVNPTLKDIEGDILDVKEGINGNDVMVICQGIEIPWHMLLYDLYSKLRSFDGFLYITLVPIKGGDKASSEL

Take “6xmyc-Atg19 (from UniProt P35193 1-415) (natural protein)”: the figures for the 6xmyc-Atg19 pulled down, percent of the sample with wild type Atg5 and Atg16 in assay [1] and in assay [2] were 13% and 2.9%, respectively.
